Results from the supplement of paper PMC10065799, “High-throughput profiling of sequence recognition by tyrosine kinases and SH2 domains using bacterial peptide display” (eLife, 2023).

How the values were obtained:
EPHB1 = EPHB1 (UniProt P54762); assay: phosphorylation enrichment, bacterial display (enrichment ratio); higher = better substrate or ligand; peptides without Tyr show the background
Hck = Hck (UniProt P08631); assay: as above
Fes = Fes (UniProt P07332); assay: as above
Fyn = Fyn (UniProt P06241); assay: as above
FGFR3 = FGFR3 (UniProt P22607); assay: as above
MERTK = MERTK (UniProt Q12866); assay: as above
c-Src = assay: as above
Jak2 = Jak2 (UniProt O60674); assay: as above
c-Abl (mouse) = assay: as above
FGFR1 = FGFR1 (UniProt P11362); assay: as above
EPHB2 = EPHB2 (UniProt P29323); assay: as above
AncSZ = assay: as above
Fer (mouse) = assay: as above
SHP2-C SH2 = assay: SH2 binding enrichment of the phosphorylated peptide, bacterial display (enrichment ratio); higher = better substrate or ligand; peptides without Tyr show the background
Grb2 SH2 = Grb2 SH2 (UniProt P62993); assay: as above
c-Src SH2 = assay: as above
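For SH2 binding enrichment of the phosphorylated peptide, bacterial display in this document: peptide library displayed on the E. coli surface as eCPX fusions, selected cells deep-sequenced, score is each peptide's frequency after selection divided by its frequency in the input.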
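For phosphorylation enrichment, bacterial display in this document: 11-residue human phosphosite peptides and single-mutation variants displayed on the E. coli surface, counted by deep sequencing, each peptide's frequency after selection divided by its frequency in the unselected input library; frequency after pTyr selection over input frequency; kinase dosed for 20-30% of maximal phosphorylation in three min.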

Sequence of Fyn (P06241 whole entry, looked up): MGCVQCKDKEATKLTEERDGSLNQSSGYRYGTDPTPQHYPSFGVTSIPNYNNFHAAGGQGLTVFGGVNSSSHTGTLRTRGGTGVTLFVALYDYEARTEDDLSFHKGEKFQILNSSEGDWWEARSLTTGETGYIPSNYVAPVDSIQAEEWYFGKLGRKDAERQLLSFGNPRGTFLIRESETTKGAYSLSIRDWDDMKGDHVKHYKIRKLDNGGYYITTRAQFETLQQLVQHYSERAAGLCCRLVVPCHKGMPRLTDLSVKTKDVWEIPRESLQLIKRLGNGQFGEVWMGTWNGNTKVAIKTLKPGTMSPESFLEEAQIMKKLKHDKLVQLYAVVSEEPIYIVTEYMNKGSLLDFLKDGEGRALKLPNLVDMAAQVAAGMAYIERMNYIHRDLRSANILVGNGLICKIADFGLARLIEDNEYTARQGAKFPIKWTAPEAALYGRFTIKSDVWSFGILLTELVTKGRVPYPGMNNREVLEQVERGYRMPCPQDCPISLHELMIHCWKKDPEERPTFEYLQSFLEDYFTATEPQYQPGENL
Sequence of Grb2 SH2 (P62993 whole entry, looked up): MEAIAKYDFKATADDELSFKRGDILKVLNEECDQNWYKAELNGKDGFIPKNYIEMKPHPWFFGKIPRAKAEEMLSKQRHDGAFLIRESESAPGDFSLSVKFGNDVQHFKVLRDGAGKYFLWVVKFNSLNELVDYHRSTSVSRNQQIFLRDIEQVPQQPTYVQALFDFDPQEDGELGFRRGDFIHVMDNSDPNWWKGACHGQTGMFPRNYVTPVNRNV
Sequence of Fes (P07332 whole entry, looked up): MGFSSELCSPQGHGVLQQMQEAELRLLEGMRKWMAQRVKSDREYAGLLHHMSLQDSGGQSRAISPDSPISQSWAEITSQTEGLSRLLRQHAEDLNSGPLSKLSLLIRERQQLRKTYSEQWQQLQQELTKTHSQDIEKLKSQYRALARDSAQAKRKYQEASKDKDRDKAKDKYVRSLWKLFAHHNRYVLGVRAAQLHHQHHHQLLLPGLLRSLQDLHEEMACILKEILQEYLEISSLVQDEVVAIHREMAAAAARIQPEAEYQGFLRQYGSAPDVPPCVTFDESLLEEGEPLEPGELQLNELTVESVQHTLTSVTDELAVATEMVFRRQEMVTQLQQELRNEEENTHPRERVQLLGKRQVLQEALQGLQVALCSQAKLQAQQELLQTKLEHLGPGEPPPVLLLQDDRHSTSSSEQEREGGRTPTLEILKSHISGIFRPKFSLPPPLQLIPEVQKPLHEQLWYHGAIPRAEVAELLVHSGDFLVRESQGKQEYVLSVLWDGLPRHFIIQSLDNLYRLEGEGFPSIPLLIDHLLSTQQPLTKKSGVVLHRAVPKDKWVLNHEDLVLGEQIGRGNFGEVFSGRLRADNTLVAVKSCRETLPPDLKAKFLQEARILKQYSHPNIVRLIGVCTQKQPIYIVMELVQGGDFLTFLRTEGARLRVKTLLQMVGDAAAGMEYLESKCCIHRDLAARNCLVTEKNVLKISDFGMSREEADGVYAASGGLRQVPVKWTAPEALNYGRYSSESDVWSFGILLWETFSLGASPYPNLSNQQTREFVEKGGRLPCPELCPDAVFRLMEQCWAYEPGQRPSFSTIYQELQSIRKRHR
Sequence of EPHB1 (P54762 whole entry, looked up): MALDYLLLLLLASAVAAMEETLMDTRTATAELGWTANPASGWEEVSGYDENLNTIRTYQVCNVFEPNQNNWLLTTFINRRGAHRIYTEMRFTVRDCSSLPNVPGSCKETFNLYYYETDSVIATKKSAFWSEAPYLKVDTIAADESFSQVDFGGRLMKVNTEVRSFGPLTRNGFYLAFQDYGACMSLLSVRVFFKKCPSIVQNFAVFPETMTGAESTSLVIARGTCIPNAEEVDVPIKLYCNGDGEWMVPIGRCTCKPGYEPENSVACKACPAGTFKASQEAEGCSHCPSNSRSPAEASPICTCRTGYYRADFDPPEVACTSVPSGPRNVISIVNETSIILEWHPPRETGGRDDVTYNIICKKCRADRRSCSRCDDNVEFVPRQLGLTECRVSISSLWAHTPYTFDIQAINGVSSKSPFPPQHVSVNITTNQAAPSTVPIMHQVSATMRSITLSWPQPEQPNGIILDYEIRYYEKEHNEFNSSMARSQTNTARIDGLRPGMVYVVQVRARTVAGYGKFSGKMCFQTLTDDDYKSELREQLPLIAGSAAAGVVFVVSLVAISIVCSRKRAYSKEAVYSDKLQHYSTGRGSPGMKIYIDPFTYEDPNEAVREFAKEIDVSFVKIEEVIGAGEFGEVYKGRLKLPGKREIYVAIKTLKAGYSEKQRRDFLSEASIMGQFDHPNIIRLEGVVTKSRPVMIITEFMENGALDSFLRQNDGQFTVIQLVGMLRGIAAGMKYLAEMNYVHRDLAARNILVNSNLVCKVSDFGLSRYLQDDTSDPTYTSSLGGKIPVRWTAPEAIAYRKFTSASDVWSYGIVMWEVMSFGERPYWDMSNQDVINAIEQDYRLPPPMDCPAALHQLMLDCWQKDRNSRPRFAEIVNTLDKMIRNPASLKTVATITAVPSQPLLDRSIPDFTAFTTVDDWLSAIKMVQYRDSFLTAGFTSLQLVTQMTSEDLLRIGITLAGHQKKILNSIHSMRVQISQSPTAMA
Sequence of Jak2 (O60674 whole entry, looked up): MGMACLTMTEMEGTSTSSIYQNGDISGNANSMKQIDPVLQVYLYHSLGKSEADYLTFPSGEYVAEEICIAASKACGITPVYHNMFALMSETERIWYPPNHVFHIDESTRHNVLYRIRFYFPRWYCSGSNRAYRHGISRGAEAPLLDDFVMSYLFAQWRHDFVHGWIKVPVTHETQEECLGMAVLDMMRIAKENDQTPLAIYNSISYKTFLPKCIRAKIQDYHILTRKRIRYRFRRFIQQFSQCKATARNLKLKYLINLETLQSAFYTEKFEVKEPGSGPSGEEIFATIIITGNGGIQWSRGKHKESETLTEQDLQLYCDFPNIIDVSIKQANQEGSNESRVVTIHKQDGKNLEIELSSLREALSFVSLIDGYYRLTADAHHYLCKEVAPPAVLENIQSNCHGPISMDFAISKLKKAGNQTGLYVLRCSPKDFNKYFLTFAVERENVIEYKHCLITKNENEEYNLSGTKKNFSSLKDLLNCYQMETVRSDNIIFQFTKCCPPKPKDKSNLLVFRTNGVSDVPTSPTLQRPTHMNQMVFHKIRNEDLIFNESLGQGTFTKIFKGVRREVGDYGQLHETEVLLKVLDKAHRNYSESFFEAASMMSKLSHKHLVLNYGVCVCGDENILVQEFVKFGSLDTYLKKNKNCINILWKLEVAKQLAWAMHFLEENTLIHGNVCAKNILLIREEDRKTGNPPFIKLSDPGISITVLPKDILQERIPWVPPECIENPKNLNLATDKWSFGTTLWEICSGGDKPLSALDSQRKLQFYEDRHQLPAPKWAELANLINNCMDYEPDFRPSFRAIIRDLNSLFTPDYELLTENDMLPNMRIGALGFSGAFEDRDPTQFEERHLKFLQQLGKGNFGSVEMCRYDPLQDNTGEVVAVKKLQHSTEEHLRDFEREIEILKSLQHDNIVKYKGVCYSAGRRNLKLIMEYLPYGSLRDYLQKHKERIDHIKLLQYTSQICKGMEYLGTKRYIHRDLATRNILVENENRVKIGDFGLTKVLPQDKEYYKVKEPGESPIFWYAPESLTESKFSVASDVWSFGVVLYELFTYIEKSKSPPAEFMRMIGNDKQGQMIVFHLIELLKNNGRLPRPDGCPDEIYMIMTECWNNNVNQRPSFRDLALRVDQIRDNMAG
Sequence of Hck (P08631 whole entry, looked up): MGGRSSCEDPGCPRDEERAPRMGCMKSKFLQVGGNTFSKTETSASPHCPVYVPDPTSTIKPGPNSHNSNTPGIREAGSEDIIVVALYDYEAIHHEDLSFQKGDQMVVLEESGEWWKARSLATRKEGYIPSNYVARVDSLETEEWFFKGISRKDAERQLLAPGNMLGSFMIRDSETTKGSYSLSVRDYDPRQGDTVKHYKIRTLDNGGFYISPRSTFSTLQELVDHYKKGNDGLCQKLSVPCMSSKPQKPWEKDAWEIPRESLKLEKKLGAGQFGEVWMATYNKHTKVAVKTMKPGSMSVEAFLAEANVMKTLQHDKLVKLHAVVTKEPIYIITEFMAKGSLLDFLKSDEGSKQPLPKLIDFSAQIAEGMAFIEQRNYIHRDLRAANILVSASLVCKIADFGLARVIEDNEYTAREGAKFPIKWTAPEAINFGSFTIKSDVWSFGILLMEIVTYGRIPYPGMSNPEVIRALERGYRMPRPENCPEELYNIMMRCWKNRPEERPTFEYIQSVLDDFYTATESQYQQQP
Sequence of FGFR1 (P11362 whole entry, looked up): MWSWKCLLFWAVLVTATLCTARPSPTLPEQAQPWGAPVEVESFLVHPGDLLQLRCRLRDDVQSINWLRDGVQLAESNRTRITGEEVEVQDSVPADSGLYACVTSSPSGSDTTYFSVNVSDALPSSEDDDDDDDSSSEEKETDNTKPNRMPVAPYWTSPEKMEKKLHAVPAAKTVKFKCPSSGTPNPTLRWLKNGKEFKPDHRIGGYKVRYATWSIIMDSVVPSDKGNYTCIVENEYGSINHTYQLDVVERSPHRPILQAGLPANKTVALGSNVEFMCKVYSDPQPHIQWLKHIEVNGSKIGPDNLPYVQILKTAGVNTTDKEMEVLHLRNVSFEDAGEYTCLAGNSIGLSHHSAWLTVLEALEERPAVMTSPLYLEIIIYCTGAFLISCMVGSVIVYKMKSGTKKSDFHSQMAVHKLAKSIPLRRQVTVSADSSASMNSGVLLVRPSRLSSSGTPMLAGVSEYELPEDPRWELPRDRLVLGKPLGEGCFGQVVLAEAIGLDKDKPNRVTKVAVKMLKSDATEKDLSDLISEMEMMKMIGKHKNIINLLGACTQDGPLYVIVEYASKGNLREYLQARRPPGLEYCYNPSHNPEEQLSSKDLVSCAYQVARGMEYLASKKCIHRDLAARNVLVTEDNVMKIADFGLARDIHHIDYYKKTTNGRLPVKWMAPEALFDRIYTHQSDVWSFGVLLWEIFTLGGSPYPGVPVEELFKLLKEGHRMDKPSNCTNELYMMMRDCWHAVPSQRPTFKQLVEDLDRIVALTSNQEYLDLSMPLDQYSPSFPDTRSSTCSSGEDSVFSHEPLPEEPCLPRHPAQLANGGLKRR

Row | Sequence | phosphorylation enrichment (EPHB1) | phosphorylation enrichment (Hck) | phosphorylation enrichment (Fes) | phosphorylation enrichment (Fyn) | phosphorylation enrichment (FGFR3) | phosphorylation enrichment (MERTK) | phosphorylation enrichment (c-Src) | phosphorylation enrichment (Jak2) | phosphorylation enrichment (c-Abl (mouse)) | phosphorylation enrichment (FGFR1) | phosphorylation enrichment (EPHB2) | phosphorylation enrichment (AncSZ) | phosphorylation enrichment (Fer (mouse)) | SH2 binding enrichment (SHP2-C SH2) | SH2 binding enrichment (Grb2 SH2) | SH2 binding enrichment (c-Src SH2)
1 | DDHFTYSRFPW [LY75_Y888_YF] | 4.84 | 6.66 | 1.07 | 4.83 | 0.797 | 3.18 | 4.98 | 1.28 | 1.66 | 0.905 | 5.18 | 1.16 | 0.609 | 0.64 | 0.833 | 0.418
2 | TGDFGYRAPGY [TNS2_Y668] | 0.387 | 0.376 | 0.546 | 0.477 | 0.435 | 0.31 | 0.441 | 0.557 | 0.533 | 0.415 | 0.413 | 0.545 | 0.332 | 0.619 | 0.747 | 0.425
3 | SVVVPYEPLEV [TP53_Y220_P223L] | 0.562 | 0.533 | 1.23 | 0.587 | 0.836 | 0.489 | 0.46 | 0.947 | 0.697 | 0.531 | 0.602 | 1.19 | 0.934 | 0.598 | 0.849 | 2.45
4 | GHLYAYDWIRI [BEST1_Y227_S231R] | 3.44 | 3.12 | 3.03 | 1.84 | 2.73 | 9.27 | 2.28 | 0.941 | 0.857 | 4.35 | 2.42 | 1.44 | 15.8 | 1.31 | 1.25 | 1.97
5 | PRPAGYPSTVS [CACNA1C_Y1832] | 0.327 | 0.251 | 0.493 | 0.43 | 0.446 | 0.363 | 0.735 | 0.55 | 0.653 | 0.333 | 0.413 | 0.458 | 0.331 | 0.621 | 1 | 0.484
6 | MSRNLYSGDCY [DDR2_Y736_Y740C] | 2.11 | 2.27 | 0.993 | 1.96 | 1.15 | 4.75 | 1.49 | 0.69 | 0.581 | 0.951 | 2.35 | 0.985 | 0.811 | 0.614 | 0.796 | 0.746
7 | GRLPEYNTPIA [CCDC151_Y542_R545P] | 0.515 | 0.325 | 0.643 | 0.442 | 0.397 | 0.407 | 0.463 | 0.662 | 0.716 | 0.388 | 0.432 | 0.704 | 0.317 | 0.479 | 0.807 | 0.841
8 | HHTDECEFDEL [TGM1_Y134_Y134C_YF] | 0.423 | 0.586 | 1.1 | 0.488 | 0.545 | 0.471 | 0.727 | 1.05 | 0.858 | 0.605 | 0.426 | 1.07 | 0.463 | 0.628 | 1.12 | 0.585
